Laboratory results taken from patent publication US20190055322A1 (Ablynx, published 2019).

Key:
[1] = target: T1, PcrV of P. aeruginosa strain PA103 (on TTSS-induced bacteria) (Pseudomonas aeruginosa strain PA103); test: cell-based or functional assay
[2] = target: T1, PcrV of P. aeruginosa strain PA103 (on …); test: cell-based or functional assay; remark: listed apart in the source
[3] = target: T1, PcrV of P. aeruginosa strain PA103 (on …); test: cell-based or functional assay; remark: listed apart in the source
[4] = target: T1, PcrV of P. aeruginosa strain PA103 (on …); test: cell-based or functional assay; remark: listed apart in the source
[5] = target: T1, PcrV of P. aeruginosa strain PA103 (on …); test: cell-based or functional assay; remark: listed apart in the source
[6] = target: T2, recombinant PcrV protein (rPcrV), strain PAO1, amino acid residues 1-294, C-terminal His6 (Pseudomonas aeruginosa strain PAO1); test: SPR ProteOn, periplasmic extract on immobilised rPcrV
[7] = target: T2, recombinant PcrV protein (rPcrV), …; test: ELISA, periplasmic extract on biotinylated rPcrV
[8] = target: GST-PcrV (strain PAO1, amino acid residues 1-294) (Pseudomonas aeruginosa strain PAO1); test: SPR Biacore T100, GST-PcrV immobilised
Wherever cytotox assay (% inhibition), P3X63, PA103 is given: test concentration or dose not given here.

B1: Nanobody 261 (5H01-40GS-2B10) (VHH)
chain: EVQLVESGGGLVQPGGSLRLSCAASGSTLDYYAIGWFRQAPGKEREGVSCTSNSGSTYYGGSVKGRFTASRDNAKNTVYLQMNSLRPEDTAVYYCVATIGCATLGGTLDVQRYYYRGQGTLVTVSSGGGGSGGGGSGGGGSGGGGSGGGGSGGGGSGGGGSGGGGSEVQLVESGGGLVQPGGSLRLSCAASGSIFSINNMGWYRQAPGKQRELVTVVTSNLITTYADSVKGRFTISRDNAKNTVYLQMNSLKPEDTAVYYCNAWARSVGSVPYSQFWGQGTLVTVSS
[1]
  % inhibition in P3X63 cytotoxicity assay, extract 1/150: 42%
[2]
  Efficacy (%), P3X63 cytotoxicity, MOI 12: 100%
  IC50 value (M), P3X63 cytotoxicity, MOI 12: 4.8e-10 M
[3]
  Ratio (IC50 Fab 13.37/IC50 Nanobody), A549 cytotoxicity: 1 fold

B2: Nanobody 10C05 (VHH)
VHH: EVQLVESGGGLVQPGGSLRLSCAASGSIFSINTMGWYRQAPGKQRDLVASITMNQVPNYADSVQGRFTISRDNVRNTVHLQMNAVKPEDTADYFCNAWVRSSGASPYTNYWGQGTQVTVSS
[4]
  cytotox assay (% inhibition), P3X63, PA103: 25%
[5]
  % inhibition, P3X63 cytotoxicity assay, MOI 3: 100%
  IC50 (nM), P3X63 cytotoxicity assay, MOI 3: > 1000 nM
[6]
  koff: 0.0006 s⁻¹

B3: Nanobody 2B02 (VHH)
VHH: EVQLVESGGGLVQPGDSLRLSCAASGRILSINNMVWYRQAPGKQRELVAHITSSGSTGYADSVKGRFTISRDNAKNTFYLQMTNLNPEDTAVYYCNCWVSSDSNAPLKNYWGQGTQVTVSS
[4]
  cytotox assay (% inhibition), P3X63, PA103: 46%
[5]
  % inhibition, P3X63 cytotoxicity assay, MOI 4: 100%
  IC50 (nM), P3X63 cytotoxicity assay, MOI 4: 1730 nM
[7]
  binding ELISA (OD 450 nm): 2.4 OD 450 nm
[6]
  koff: 0.00037 s⁻¹

B4: Nanobody 14B10 (VHH)
VHH: EVQLVESGGGLVQPGGSLRLSCAASGRIFSINNMGWYHQAPGKQRELVATITMNGITTYADSVKGRFTISRDNAKNTVYLQMNSLKPEDTAVYYCSCWVRSSGGDPYRDYWGQGTQVTVSS
[4]
  cytotox assay (% inhibition), P3X63, PA103: 20%
[5]
  % inhibition, P3X63 cytotoxicity assay, MOI 3: > 70%
  IC50 (nM), P3X63 cytotoxicity assay, MOI 3: > 3000 nM
[6]
  koff: 0.00092 s⁻¹

B5: Nanobody 271 (7C10-40GS-14E10) (VHH)
chain: EVQLVESGGGLVQAGGSLRLSCTASGRTLSSYTMGWFRQAPGTEREFVAAMTRSGFNTYYADSVKGRFTISRDSTENTMALQMSSLKPEDTAVYYCTAGRGLTSYRADYWGQGTLVTVSSGGGGSGGGGSGGGGSGGGGSGGGGSGGGGSGGGGSGGGGSEVQLVESGGGLVQPGGSLRLSCAASGRIFSINTMGWYRQAPGKQRELVAGVTINAITNYADSVKGRFTISRDNAKNTVWLQMNSLKPEDTAVYYCHAWARSSGSAPYSQNWGQGTLVTVSS
[1]
  % inhibition in P3X63 cytotoxicity assay, extract 1/150: 43%
[2]
  Efficacy (%), P3X63 cytotoxicity, MOI 12: 100%
  IC50 value (M), P3X63 cytotoxicity, MOI 12: 5.9e-10 M
[3]
  Ratio (IC50 Fab 13.37/IC50 Nanobody), A549 cytotoxicity: 1 fold

B6: Nanobody 259 (1E11-40GS-5H01) (VHH)
chain: EVQLVESGGGLVQPGGSLRLSCAASGSTRSVNPMAWFRQAPGRQREWVATISRSGYATYADSVKGRFTISGDNAKSSVYLQMNSLKPEDTAVYYCVTGTYWGQGTLVTVSSGGGGSGGGGSGGGGSGGGGSGGGGSGGGGSGGGGSGGGGSEVQLVESGGGLVQPGGSLRLSCAASGSTLDYYAIGWFRQAPGKEREGVSCTSNSGSTYYGGSVKGRFTASRDNAKNTVYLQMNSLRPEDTAVYYCVATIGCATLGGTLDVQRYYYRGQGTLVTVSS
[1]
  % inhibition in P3X63 cytotoxicity assay, extract 1/150: 52%
[2]
  Efficacy (%), P3X63 cytotoxicity, MOI 12: 100%
  IC50 value (M), P3X63 cytotoxicity, MOI 12: 3.9e-11 M
[3]
  Ratio (IC50 Fab 13.37/IC50 Nanobody), A549 cytotoxicity: 9 fold

B7: Nanobody 12B02 (VHH)
VHH: EVQLVESGGGLVQPGGSLRLSCAASGFSLGVFAIGWFRQAPGKEREGVSCIDSSDGRTTYADSVKGRFTISRDNAKNTVYLQMNSLKPEDTAVYYCATDIETDVCSGAGWGFWGQGTQVTVSS
[4]
  cytotox assay (% inhibition), P3X63, PA103: 14%
[6]
  koff: 4.4e-05 s⁻¹

B8: Nanobody 11B09 (VHH)
VHH: EVQLVESGGGLVQAGGSLRLSCAASRLTFNHYNMGWFRQAPGKERERVAEVTWSGDKIYYVDSVKGRFTISRDNTPNPVYLYLQMNSLKPEDTAVYYCATAPRGLPYANGYWGQGTQVTVSS
[4]
  cytotox assay (% inhibition), P3X63, PA103: 37%
[5]
  % inhibition, P3X63 cytotoxicity assay, MOI 3: 100%
  IC50 (nM), P3X63 cytotoxicity assay, MOI 3: 100 nM
[6]
  koff: 0.0048 s⁻¹

B9: Nanobody 256 (13F07-40GS-5H01) (VHH)
chain: EVQLVESGGGLVQAGGSLRLSCAASGNTFSTNPMYWYRQAEGKQRELVASISSRGITNYADSVRGRFSISRDNTKDTVYLQMNSLKPEDTAVYYCRLASLSSGTVYWGKGTLVTVSSGGGGSGGGGSGGGGSGGGGSGGGGSGGGGSGGGGSGGGGSEVQLVESGGGLVQPGGSLRLSCAASGSTLDYYAIGWFRQAPGKEREGVSCTSNSGSTYYGGSVKGRFTASRDNAKNTVYLQMNSLRPEDTAVYYCVATIGCATLGGTLDVQRYYYRGQGTLVTVSS
[1]
  % inhibition in P3X63 cytotoxicity assay, extract 1/150: 65%
[2]
  Efficacy (%), P3X63 cytotoxicity, MOI 12: 100%
  IC50 value (M), P3X63 cytotoxicity, MOI 12: 5.4e-11 M
[3]
  Ratio (IC50 Fab 13.37/IC50 Nanobody), A549 cytotoxicity: 21 fold

B10: Nanobody 5E02 (VHH)
VHH: EVQLVESGGGLVQPGGSLRLSCAASGITLDSIAICWFRQAPGKEREGVSCSRGSDGSTYYADSVKGRFTISRVNAKNTVYLQMNSLKPEDTAVYYCAAAPSIFYSGGYFPSGMDYWGKGTQVTVSS
[4]
  cytotox assay (% inhibition), P3X63, PA103: 71%
[5]
  % inhibition, P3X63 cytotoxicity assay, MOI 4: 100%
  IC50 (nM), P3X63 cytotoxicity assay, MOI 4: 38 nM
[8]
  Kd: 4 nM
  koff: 0.00068 s⁻¹
  kon: 180000 M⁻¹ s⁻¹
[7]
  binding ELISA (OD 450 nm): 2.43 OD 450 nm
[6]
  koff: 0.00057 s⁻¹

B11: Nanobody 4C03 (VHH)
VHH: EVQLVESGGGLVQAGGSLRLSCVISASTVRNYDMGWFRQAPGKEREFVAAIDWSGGSTRYADSVKGRFTVSRDNAKNTVYLQMNSLKPEDTAVYYCVAAGFYNNYLRTAPNDWNYWGQGTLVTVSS
[4]
  cytotox assay (% inhibition), P3X63, PA103: 22%
[5]
  % inhibition, P3X63 cytotoxicity assay, MOI 1.5: > 20%
  IC50 (nM), P3X63 cytotoxicity assay, MOI 1.5: 8890 nM
[7]
  binding ELISA (OD 450 nm): 0.89 OD 450 nm
[6]
  koff: 0.0068 s⁻¹

B12: Nanobody 4G10 (VHH)
VHH: EVQLVESGGGLVQAGGSLRLSCVISEDGVRNYDMGWFRQAPGKEREFVATINWSGGSTNYADSVKGRFTVSRDNAKNTMYLQMDSLKPEDTAVYYCVAAGFYNNYLRTAPNDWNDWGQGTQVTVSS
[4]
  cytotox assay (% inhibition), P3X63, PA103: 81%
[5]
  % inhibition, P3X63 cytotoxicity assay, MOI 4: 100%
  IC50 (nM), P3X63 cytotoxicity assay, MOI 4: 105 nM
[8]
  Kd: 5 nM
  koff: 0.00065 s⁻¹
  kon: 140000 M⁻¹ s⁻¹
[7]
  binding ELISA (OD 450 nm): 2.6 OD 450 nm
[6]
  koff: 0.00013 s⁻¹

B13: Nanobody 2G09 (VHH)
VHH: EVQLVESGGGLVQPGGSLRLSCAASGSFGDNYELYAMTWFRQAPGERRDFVASVTGDGSTSYADSVKDRFTISRDNAKKLMYLQMNSLKPEDTAVYYCRLLNYWGQGTLVTVSS
[4]
  cytotox assay (% inhibition), P3X63, PA103: 45%
[5]
  % inhibition, P3X63 cytotoxicity assay, MOI 4: 55%
  IC50 (nM), P3X63 cytotoxicity assay, MOI 4: 4 nM
[7]
  binding ELISA (OD 450 nm): 2.37 OD 450 nm
[6]
  koff: 0.001 s⁻¹

B14: Nanobody 3B11 (VHH)
VHH: EVQLVESGGGLVQAGGSLRLSCAASGFTFDDYVIGWFRQAPGKEREGVSCISRLDGRTYYTDSVKGRFTISSDNAKNTVYLQMNSLKPEDTAVYYCALEPRYTGDYYPVHPELYDYWGQGTQVTVSS
[4]
  cytotox assay (% inhibition), P3X63, PA103: 26%
[5]
  % inhibition, P3X63 cytotoxicity assay, MOI 4: 54%
  IC50 (nM), P3X63 cytotoxicity assay, MOI 4: 1140 nM
[7]
  binding ELISA (OD 450 nm): 0.55 OD 450 nm
[6]
  koff: 0.0027 s⁻¹

B15: Nanobody 3E10 (VHH)
VHH: EVQLVESGGGLVQAGGSLRLSCTASGHTFSSYTMGWFRQAPGKEREFVAAMTRSGFNTHYSDSVKGRFTISRDNTSRDNTKITMALQMNSLKPEDTAVYYCTTGRGLTSYVANFWGQGTQVTVSS
[4]
  cytotox assay (% inhibition), P3X63, PA103: 25%
[5]
  % inhibition, P3X63 cytotoxicity assay, MOI 4: 94%
  IC50 (nM), P3X63 cytotoxicity assay, MOI 4: 48 nM
[8]
  Kd: 1 nM
  koff: 0.0039 s⁻¹
  kon: 2.7e+06 M⁻¹ s⁻¹
[7]
  binding ELISA (OD 450 nm): 2.51 OD 450 nm
[6]
  koff: 0.0015 s⁻¹

B16: Nanobody 7C10 (VHH)
VHH: EVQLVESGGGLVQAGGSLRLSCTASGRTLSSYTMGWFRQAPGTEREFVAAMTRSGFNTYYADSVKGRFTISRDSTENTMALQMSSLKPEDTAVYYCTAGRGLTSYRADYWGQGTLVTVSS
[4]
  cytotox assay (% inhibition), P3X63, PA103: 58%
[5]
  % inhibition, P3X63 cytotoxicity assay, MOI 4: 100%
  IC50 (nM), P3X63 cytotoxicity assay, MOI 4: 42 nM
[8]
  Kd: 2 nM
  koff: 0.0018 s⁻¹
  kon: 1.2e+06 M⁻¹ s⁻¹
[7]
  binding ELISA (OD 450 nm): 2.55 OD 450 nm
[6]
  koff: 0.00082 s⁻¹

B17: Nanobody 257 (13F07-40GS-2B10) (VHH)
chain: EVQLVESGGGLVQAGGSLRLSCAASGNTFSTNPMYWYRQAEGKQRELVASISSRGITNYADSVRGRFSISRDNTKDTVYLQMNSLKPEDTAVYYCRLASLSSGTVYWGKGTLVTVSSGGGGSGGGGSGGGGSGGGGSGGGGSGGGGSGGGGSGGGGSEVQLVESGGGLVQPGGSLRLSCAASGSIFSINNMGWYRQAPGKQRELVTVVTSNLITTYADSVKGRFTISRDNAKNTVYLQMNSLKPEDTAVYYCNAWARSVGSVPYSQFWGQGTLVTVSS
[1]
  % inhibition in P3X63 cytotoxicity assay, extract 1/150: 80%
[2]
  Efficacy (%), P3X63 cytotoxicity, MOI 12: 100%
  IC50 value (M), P3X63 cytotoxicity, MOI 12: 1.3e-10 M
[3]
  Ratio (IC50 Fab 13.37/IC50 Nanobody), A549 cytotoxicity: 10 fold
